Experimental data published in the RNAGym collection of RNA variant scans (doi:10.1073/pnas.2313332121).

B1: TPR t1 (parent)
chain: GACCAAUCUGCCCUCAGAGCUCGAGAACAUCUUCGGAUGCAGAGGAGGCAGGCUUCGGUGGCGCGAUAGCGCCAACGUCCUCAACCUCCAAUGCAUCCCACCACAUGAUGAUGCCUGAAGAGCCUUGGUUUUUUG

Variants of: B1
Assay: polymerase ribozyme fitness, log enrichment relative to wild type (log ratio); higher = more active; in vitro selection for triplet polymerase activity
How it was run: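 A heterodimeric triplet polymerase ribozyme had each of its subunits mutagenized by PCR into a library, which was transcribed. One round of in vitro selection, done in triplicate, annealed each library with a biotinylated primer, its partner subunit and triplets, then incubated it frozen at −7 °C before gel excision of extended constructs, streptavidin-bead capture and RT-PCR. Fitness is the logarithm of genotype enrichment relative to wild-type enrichment, based on Illumina sequencing of inputs and outputs and inverse-variance-weighted replicate averages. A base-2 logarithm is used, and genotypes were kept only with ≥10 input reads and ≥1 read per output.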

Variant | polymerase ribozyme fitness (log ratio)
GACCAAUCUGCCCUCAGAGCUCGAGAACAUCUUCGGAUGCAGAGGAGGCAGGCUUCGGUGGCGCGAUAGCGCCAACGUCCUCAACCUCCAAUGCAUCCCACCACAUAAUGAUGCCUGAAGAGCCUUGGUUUUGUG [G107A U133G] | -4.3
GACCAAUCUGCCCUCAGAGCUCGAGAACAUCUUCGGAUGCAGAGGAGGCAGGCUUCGGUGGCGCGAUAGCGCCAACGUCCUCAACCUCCAAUGCAUCCCACCACAAGAUGAUGCCUGAAGAGCCGUGGUUUUUUG [U106A U125G] | -0.507
GACCAAUCUGCCCUCAGAGCUCGAGAACAUCUUCGGAUGCAGAGGAGGCAGGCUUCGGUGGCGCGAUAGCGCCAACGUCCUCAACCUCCAAUGCAUCCCACCACAUAAUGAUGCCUGAAGAGCCUUGGUUUUUUG [G107A] | -4.86
GACCAAUCUGCCCUCAGAGCUCGAGAACAUCUUCGGAUGCAGAGGAGGCAGGCUUCGGUGGCGCGAUAGCGCCAACGUCCUCAACCUCCAAUGCAUCCCACCACAUCAUGAUGCCUGAAGAGCCUUGGUUUUUUG [G107C] | -5.46
GACCAAUCUGCCCUCAGAGCUCGAGAACAUCUUCGGAUGCAGAGGAGGCAGGCUUCGGUGGCGCGAUAGCGCCAACGUCCUCAACCUCCAAUGCAUCCCACCACAUUAUGAUGCCUGAAGAGCCUUGGUUUUUUG [G107U] | -4.78
GACCAAUCUGCCCUCAGAGCUCGAGAACAUCUUCGGAUGCAGAGGAGGCAGGCUUCGGUGGCGCGAUAGCGCCAACGUCCUCAACCUCCAAUGCAUCCCACCACAUAAUGAUGCCUGAAGCGCCUUGGUUUUUUG [G107A A121C] | -3.64
GACCAAUCUGCCCUCAGAGCUCGAGAACAUCUUCGGAUGCAGAGGAGGCAGGCUUCGGUGGCGCGAUAGCGCCAACGUCCUCAACCUCCAAUGCAUCCCACCACAGAAUGAUGCCUGAAGAGCCUUGGUUUUAUG [U106G G107A U133A] | -5.4
GACCAAUCUGCCCUCAGAGCUCGAGAACAUCUUCGGAUGCAGAGGAGGCAGGCUUCGGUGGCGCGAUAGCGCCAACGUCCUCAACCUCCAAUGCAUCCCACCACACGAUGAUGCCUGAAGAGCCUUCGUUUUUUG [U106C G127C] | -1.07
GACCAAUCUGCCCUCAGAGCUCGAGAACAUCUUCGGAUGCAGAGGAGGCAGGCUUCGGUGGCGCGAUAGCGCCAACGUCCUCAACCUCCAAUGCAUCCCACCACAGGAUGAUGCCUGAAGAGCCUUGGUGUUUUG [U106G U130G] | -1.21
GACCAAUCUGCCCUCAGAGCUCGAGAACAUCUUCGGAUGCAGAGGAGGCAGGCUUCGGUGGCGCGAUAGCGCCAACGUCCUCAACCUCCAAUGCAUCCCACCACACGAUGAUUCCUGAAGAGCCUUGGUUUUUUG [U106C G113U] | -3.01
GACCAAUCUGCCCUCAGAGCUCGAGAACAUCUUCGGAUGCAGAGGAGGCAGGCUUCGGUGGCGCGAUAGCGCCAACGUCCUCAACCUCCAAUGCAUCCCACCACAGGAUGAUGCCUGAAGAGCCUUGGUUUUUUG [U106G] | -1.17
GACCAAUCUGCCCUCAGAGCUCGAGAACAUCUUCGGAUGCAGAGGAGGCAGGCUUCGGUGGCGCGAUAGCGCCAACGUCCUCAACCUCCAAUGCAUCCCACCACACGAUGAUGCCUGAAGAGCCUUGGUUUUUUG [U106C] | -0.282
GACCAAUCUGCCCUCAGAGCUCGAGAACAUCUUCGGAUGCAGAGGAGGCAGGCUUCGGUGGCGCGAUAGCGCCAACGUCCUCAACCUCCAAUGCAUCCCACCACAGGAUGAUGCCUGAAGAGGGUUGGUUUUUUG [U106G C123G C124G] | 1.38
GACCAAUCUGCCCUCAGAGCUCGAGAACAUCUUCGGAUGCAGAGGAGGCAGGCUUCGGUGGCGCGAUAGCGCCAACGUCCUCAACCUCCAAUGCAUCCCACCACAAGAUGAAGCCUGAAGAGCCUUGGCUUUUUG [U106A U112A U129C] | 0.363
GACCAAUCUGCCCUCAGAGCUCGAGAACAUCUUCGGAUGCAGAGGAGGCAGGCUUCGGUGGCGCGAUAGCGCCAACGUCCUCAACCUCCAAUGCAUCCCACCACAUCAUGAUGCCUGAAGUGCCUUGGUUUUUUG [G107C A121U] | -3.13
GACCAAUCUGCCCUCAGAGCUCGAGAACAUCUUCGGAUGCAGAGGAGGCAGGCUUCGGUGGCGCGAUAGCGCCAACGUCCUCAACCUCCAAUGCAUCCCACCACAUGGUGAUGCUUGAAGAGCCUUGGUUUUUUG [A108G C115U] | -3.36
GACCAAUCUGCCCUCAGAGCUCGAGAACAUCUUCGGAUGCAGAGGAGGCAGGCUUCGGUGGCGCGAUAGCGCCAACGUCCUCAACCUCCAAUGCAUCCCACCACAUUAUGAUGCCUGAAGAGGCUUGGUUUUUUG [G107U C123G] | -2.37
GACCAAUCUGCCCUCAGAGCUCGAGAACAUCUUCGGAUGCAGAGGAGGCAGGCUUCGGUGGCGCGAUAGCGCCAACGUCCUCAACCUCCAAUGCAUCCCACCACAGGAUGAUGCCUGAAGAGCCUUGGUUUUGUG [U106G U133G] | -0.611
GACCAAUCUGCCCUCAGAGCUCGAGAACAUCUUCGGAUGCAGAGGAGGCAGGCUUCGGUGGCGCGAUAGCGCCAACGUCCUCAACCUCCAAUGCAUCCCACCACAUAAUGAUGCCUGAAGAGCCUUGGUGUUUUG [G107A U130G] | -6.83
GACCAAUCUGCCCUCAGAGCUCGAGAACAUCUUCGGAUGCAGAGGAGGCAGGCUUCGGUGGCGCGAUAGCGCCAACGUCCUCAACCUCCAAUGCAUCCCACCACAUAAUGAAGCCUGAAGAGCCUUGGUUUUUUG [G107A U112A] | -5.07
GACCAAUCUGCCCUCAGAGCUCGAGAACAUCUUCGGAUGCAGAGGAGGCAGGCUUCGGUGGCGCGAUAGCGCCAACGUCCUCAACCUCCAAUGCAUCCCACCACACGAUGAUGACUGAACAGCCUUGGUUUUUUG [U106C C114A G120C] | -2.21
